{"source": "paper PMC3320014", "origin": "cited, not measured here", "biological_target": "Protein Z-dependent protease inhibitor (Homo sapiens) (UniProt Q9UK55)", "sequence (Q9UK55 22-444)": "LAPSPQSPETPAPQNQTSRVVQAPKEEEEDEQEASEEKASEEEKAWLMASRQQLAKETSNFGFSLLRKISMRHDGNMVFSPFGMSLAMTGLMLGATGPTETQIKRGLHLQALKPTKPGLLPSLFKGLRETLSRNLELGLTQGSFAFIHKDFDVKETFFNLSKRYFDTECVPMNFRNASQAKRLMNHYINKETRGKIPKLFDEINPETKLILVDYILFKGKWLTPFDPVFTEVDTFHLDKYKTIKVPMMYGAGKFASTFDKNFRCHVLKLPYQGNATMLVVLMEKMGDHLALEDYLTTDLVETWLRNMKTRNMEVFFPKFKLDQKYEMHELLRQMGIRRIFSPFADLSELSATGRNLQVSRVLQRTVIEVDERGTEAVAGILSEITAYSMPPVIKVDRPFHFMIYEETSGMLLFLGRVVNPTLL", "data": [{"substance": "Protein Z (from UniProt P22891)", "values": [{"measurement": "Kd", "result": 7, "unit": "nM"}]}]}
